US20040058416A1 (published 2004)
Each block holds one binder with its values, some of them ahead of it.

Experiments:
[1] = biological target: T1, nerve growth factor (NGF) (UniProt P01138 122-241, limits assumed, iodinated (125I) where used as tracer); experiment: NGF binding to immunoadhesin (competitive displacement, as in Example 4)
T1 construct: also called 125I-NGF; labelled NGF

[2] = biological target: T2, trkB-IgG immunoadhesin (human trkB extracellular domain fused to human IgG-1 Fc) (human); experiment: competitive displacement of iodinated BDNF from trkB-IgG by unlabelled BDNF
T2 construct: also called chimeras containing trkB
T2 sequence (Q16620 32-423): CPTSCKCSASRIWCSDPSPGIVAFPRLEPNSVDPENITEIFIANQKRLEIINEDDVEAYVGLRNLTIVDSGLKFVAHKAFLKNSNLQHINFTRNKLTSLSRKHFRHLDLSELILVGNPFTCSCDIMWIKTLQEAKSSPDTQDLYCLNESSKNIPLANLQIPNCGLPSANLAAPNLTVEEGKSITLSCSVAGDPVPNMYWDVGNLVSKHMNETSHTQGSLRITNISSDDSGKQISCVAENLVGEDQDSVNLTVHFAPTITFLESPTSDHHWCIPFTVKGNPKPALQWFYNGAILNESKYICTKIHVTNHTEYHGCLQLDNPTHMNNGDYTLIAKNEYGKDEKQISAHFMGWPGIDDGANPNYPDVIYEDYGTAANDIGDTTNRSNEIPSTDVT

[3] = biological target: T1, nerve growth factor (NGF); experiment: saturation binding with 125I-NGF, immunoadhesin
[4] = biological target: T3, trkA-IgG immunoadhesin (human trkA extracellular domain fused to human IgG-1 Fc) (human, UniProt P04629 33-408); experiment: competitive displacement of iodinated NGF from trkA-IgG by unlabelled NT3
T3 construct: also called native trkA; chimeras containing trkA extracellular domain; not shown: human IgG-1 hinge-CH2-CH3 (aspartic acid 216 to residue 441)

[5] = biological target: T2, trkB-IgG immunoadhesin (human trkB …); experiment: competitive displacement of iodinated BDNF from trkB-IgG by unlabelled NT3

fold reduction of affinity for NGF relative to native trkA [1]: ~2 fold
B1: trkA variant ?4A immunoadhesin (deletion of Val193 to Val282 of trkA) (Fc fusion, not shown: a dimerising Fc or GST)
chain: AAPCPDACCPHGSSGLRCTRDGALDSLHHLPGAENLTELYIENQQHLQHLELRDLRGLGELRNLTIVKSGLRFVAPDAFHFTPRLSRLNLSFNALESLSWKTVQGLSLQELVLSGNPLHCSCALRWLQRWEEEGLGGVPEQKLQCHGQGPLAHMPNASCGSFPASVQLHTAVEMHHWCIPFSVDGQPAPSLRWLFNGSVLNETSFIFTEFLEPAANETVRHGCLRLNQPTHVNNGNYTLLAANPFGQASASIMAAFMDNPFEFNPEDPIPDTNSTSGDPV
notes: 'Mature' variant

IC50 [2]: 0.081 nM
B2: brain-derived neurotrophic factor (BDNF) (ligand, UniProt P23560 129-247, looked up)
chain: HSDPARRGELSVCDSISEWVTAADKKTAVDMSGGTVTVLEKVPVSKGQLKQYFYETKCNPMGYTKEGCRGIDKRHWNSQCRTTQSYVRALTMDSKKRIGWRFIRIDTSCVCTLTIKRGR
modifications: radiolabelled (iodinated) where used as tracer
notes: also called NT-2; labelled BDNF

Kd [3]: 0.0386 nM
B3: trkC variant s5A immunoadhesin (trkC Val297 to Thr420 replaced with trkA Ser277 to Val402) (Fc fusion, not shown: a dimerising Fc or GST)
chain: CPANCVCSKTEINCRRPDDGNLFPLLEGQDSGNSNGNANINITDISRNITSIHIENWRSLHTLNAVDMELYTGLQKLTIKNSGLRSIQPRAFAKNPHLRYINLSSNRLTTLSWQLFQTLSLRELQLEQNFFNCSCDIRWMQLWQEQGEAKLNSQNLYCINADGSQLPLFRMNISQCDLPEISVSHVNLTVREGDNAVITCNGSGSPLPDVDWIVTGLQSINTHQTNLNWTNVHAINLTLVNVTSEDNGFTLTCIAENVVGMSNASSVQVNVSFPASVQLHTAVEMHHWCIPFSVDGQPAPSLRWLFNGSVLNETSFIFTEFLEPAANETVRHGCLRLNQPTHVNNGNYTLLAANPFGQASASIMAAFMDNPFEFNPEDPIPDTNSTSGDPV
notes: also called s5A chimera

IC50 [4]: 20 nM
IC50 [5]: 18 nM
B4: neurotrophin-3 (NT-3) (ligand, UniProt P20783 139-257, looked up)
chain: YAEHKSHRGEYSVCDSESLWVTDKSSAIDIRGHQVTVLGEIKTGNSPVKQYFYETRCKEARPVKNGCRGIDDKHWNSQCKTSQTYVRALTSENNKLVGWRWIRIDTSCVCALSRKIGRT
modifications: radiolabelled (iodinated) where used as tracer
notes: also called labelled NT3; cold NT3
